We go through two molecules from patent US20220227882A1 (TRUSTEES OF TUFTS COLLEGE, published 2022).

The target of assay [1] is T1, R431A (Homo sapiens, UniProt P78325).
T1 construct: expressed on HEK293 cells; also called human ADAM8 point mutant R431A
T1 sequence (ADAM8, looked up): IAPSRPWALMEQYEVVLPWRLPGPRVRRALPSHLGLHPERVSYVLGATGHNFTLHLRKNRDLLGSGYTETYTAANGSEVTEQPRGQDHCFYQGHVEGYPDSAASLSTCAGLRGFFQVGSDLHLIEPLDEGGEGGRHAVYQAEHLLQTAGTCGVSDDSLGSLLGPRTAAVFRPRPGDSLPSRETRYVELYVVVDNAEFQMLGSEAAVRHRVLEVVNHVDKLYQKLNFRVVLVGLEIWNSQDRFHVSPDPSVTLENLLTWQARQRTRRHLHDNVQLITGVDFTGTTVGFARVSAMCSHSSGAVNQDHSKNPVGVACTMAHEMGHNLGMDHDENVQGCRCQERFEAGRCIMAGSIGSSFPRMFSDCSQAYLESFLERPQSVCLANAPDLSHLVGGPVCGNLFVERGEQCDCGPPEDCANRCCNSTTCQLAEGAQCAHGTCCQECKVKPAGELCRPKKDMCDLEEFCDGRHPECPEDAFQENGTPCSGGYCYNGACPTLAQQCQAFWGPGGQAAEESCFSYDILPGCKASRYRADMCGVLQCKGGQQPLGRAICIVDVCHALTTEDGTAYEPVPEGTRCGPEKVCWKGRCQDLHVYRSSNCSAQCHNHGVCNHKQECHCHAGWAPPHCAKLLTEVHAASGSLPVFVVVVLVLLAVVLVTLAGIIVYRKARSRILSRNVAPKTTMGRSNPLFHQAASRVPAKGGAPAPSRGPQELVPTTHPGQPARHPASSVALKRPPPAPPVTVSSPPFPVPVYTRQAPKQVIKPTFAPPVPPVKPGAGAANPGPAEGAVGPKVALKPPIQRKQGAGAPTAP
As to the kind of experiment: high-throughput flow cytometry, HEK293 cells with mutant ADAM8, high stringency; range in parentheses. The procedure:
(§1) A variety of experimental parameters were optimized for high-throughput flow cytometry including blocking buffer, and primary and secondary antibody concentrations, to identify the optimal conditions for screening. Through these studies ADP2 and ADP13 were determined to be high affinity binding antibodies.
(§2) Thus, for these studies antigen-binding fragments (Fabs) of ADP2 and ADP13, which bind with lower affinity than the full antibody, were generated. In addition, higher binding stringency conditions were tested, such as increased pH, salinity, and temperature, and/or increased washing, to weaken binding sufficiently to allow identification of critical binding residues in flow cytometry. The final experimental flow cytometry conditions were: primary antibody incubation with ADP2 Fab (0.50 μg/ml), ADP13 Fab (5.00 μg/ml) and Control Ab (0.16 μg/ml) for 60 minutes in flow cytometry buffer containing 10% goat serum in PBS (Ca²⁺ and Mg²⁺ free). […] Samples were washed three times after primary antibody incubation and twice after secondary antibody incubation with PBS (Ca²⁺ and Mg′ free). Next, HEK293 cells expressing WT or mutated ADAM8 proteins or EV DNA were incubated with ADP2 or ADP13 Fabs or Control Ab at their optimal concentrations. Fab binding was detected using Alexa Fluor 488-conjugated secondary antibodies and mean cellular fluorescence determined using the Intellicyt iQue flow cytometry platform. […] This counter-screen strategy facilitates the exclusion of mutants that are locally misfolded or that have an expression defect. Binding of each test Fab to each mutant clone in the alanine scanning library was determined, in duplicate, by high-throughput flow cytometry.
(In flow cytometry, cells or beads pass a laser one at a time.)

For assay [2], the target named is T2, Q447A (Homo sapiens, UniProt P78325).
T2 construct: expressed on HEK293 cells; also called human ADAM8 point mutant Q447A
T2 sequence (ADAM8, looked up): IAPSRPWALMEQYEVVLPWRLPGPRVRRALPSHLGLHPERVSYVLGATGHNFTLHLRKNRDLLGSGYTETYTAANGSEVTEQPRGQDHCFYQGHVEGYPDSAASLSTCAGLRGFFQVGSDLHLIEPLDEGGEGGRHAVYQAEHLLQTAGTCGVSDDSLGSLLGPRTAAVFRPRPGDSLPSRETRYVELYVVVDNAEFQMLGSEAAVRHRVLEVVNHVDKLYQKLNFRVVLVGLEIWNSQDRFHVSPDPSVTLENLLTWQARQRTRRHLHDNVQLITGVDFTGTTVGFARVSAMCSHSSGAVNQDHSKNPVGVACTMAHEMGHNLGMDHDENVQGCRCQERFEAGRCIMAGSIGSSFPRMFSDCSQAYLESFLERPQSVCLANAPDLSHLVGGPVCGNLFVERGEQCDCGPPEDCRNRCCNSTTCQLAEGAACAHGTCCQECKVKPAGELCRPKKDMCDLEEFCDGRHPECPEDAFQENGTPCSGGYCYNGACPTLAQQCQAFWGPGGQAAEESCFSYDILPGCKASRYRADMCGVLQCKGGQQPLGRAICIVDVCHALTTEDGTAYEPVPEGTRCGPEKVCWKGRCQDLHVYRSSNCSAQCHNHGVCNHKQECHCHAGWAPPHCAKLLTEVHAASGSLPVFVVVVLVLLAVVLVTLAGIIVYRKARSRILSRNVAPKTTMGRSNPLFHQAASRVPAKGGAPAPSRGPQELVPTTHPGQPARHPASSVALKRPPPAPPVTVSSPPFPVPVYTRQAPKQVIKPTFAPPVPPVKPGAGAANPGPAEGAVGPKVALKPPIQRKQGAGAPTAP
Described as above. How it is done:
as §1, §2

B1: ADP13 Fab (Fab, V domains shown)
VH: EVQLQQSGPEMVKPGTSVKISCKASGYTFTDYYINWVKQSHGKSLEWIGDISPNIGGATYNPKFKGKAILTVDKSARTAYMELRSLTSEDSAVYCCTRGGSSYPYFYAMDYWGQGTSVTVSS
VL: DIVMSQSPSSLAVSVGEKVTMSCKSSQSLLYSSNQKKYLAWYQQKPGQSPKLLIYWASTRESGVPDRFTGSGSGTDFTLTISSVKAEDLAVYYCQQFYSYPYTFGGGTKLEINR
Consider B1, for which the “Binding Reactivity (% WT)” value in assay [1] is 79.6 % WT.

B2: ADP2 Fab (Fab, V domains shown)
VH: EVKLVESGGGLVQPGGSLSLSCAASGFSFPDYYMSWVRQPPGKALEWLGFIRDSANGYTTEYIASVKGRFTFSRDNSQSILYLQMNALRAEDSATYYCARYSRYYGMDYWGQGTSVTVSS
VL: SIVMTQTPKILLVSAGDRVTITCKASQTVNYDVAWYQQKPGQSPKPVIYFASNRYTGVPDRFTGSGFGTDFTFTISTVQAEDLAVYFCQQDYSAPWTFGGGTKLEIK
Regarding B2, in assay [2], the “Binding Reactivity (% WT)” value worked out at 46.5 % WT.
